Reference: patent US6518063, “Osf2/Cbfa1 nucleic acids and methods of use therefor” (Board of Regents, The University of Texas System)

B1: Osteocalcin (OG2) OSE2 (dsDNA)
DNA 1: AGCTGCAATCACCAACCACAGCA
DNA 2: TGCTGTGGTTGGTGATTGCAGCT
B2: Osteopontin OSE2 (dsDNA)
DNA 1: CGCTCTTTGTGCAAACCACACAG
DNA 2: CTGTGTGGTTTGCACAAAGAGCG

Key:
[1] = biological target: delta.runt.PST + Cbfb heterodimer (UniProt Q08775;Q08024 Q08775:188-607,Q08024:1-187); experiment: EMSA; supershifted heterodimer complex; conditions: tags: 6xHis (pTrcHis); chain copies: 2 (1:1 heterodimer, inferred); label: 32P
delta.runt.PST + Cbfb heterodimer, sequence (Q08775 188-607, stated change not applied, chain 1 of 2): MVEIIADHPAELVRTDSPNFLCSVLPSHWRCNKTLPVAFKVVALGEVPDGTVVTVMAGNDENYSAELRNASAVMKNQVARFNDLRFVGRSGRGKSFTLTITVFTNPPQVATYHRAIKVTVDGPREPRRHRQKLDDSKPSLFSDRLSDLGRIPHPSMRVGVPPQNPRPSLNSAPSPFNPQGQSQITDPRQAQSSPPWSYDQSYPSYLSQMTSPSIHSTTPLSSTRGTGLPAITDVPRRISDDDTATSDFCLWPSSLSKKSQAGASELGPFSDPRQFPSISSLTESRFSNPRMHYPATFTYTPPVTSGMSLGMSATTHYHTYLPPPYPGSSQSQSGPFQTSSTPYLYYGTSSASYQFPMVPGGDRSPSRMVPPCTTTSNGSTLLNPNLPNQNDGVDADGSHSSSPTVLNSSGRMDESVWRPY
delta.runt.PST + Cbfb heterodimer, sequence (Q08024 whole entry, stated change not applied, chain 2 of 2, the tested form may be a part): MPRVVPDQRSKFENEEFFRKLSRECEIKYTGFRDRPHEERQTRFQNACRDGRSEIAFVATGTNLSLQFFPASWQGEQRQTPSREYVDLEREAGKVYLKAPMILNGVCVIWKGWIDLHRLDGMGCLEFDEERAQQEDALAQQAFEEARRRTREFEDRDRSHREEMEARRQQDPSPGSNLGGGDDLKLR
Description: FIG. 18A. The QA domain prevents heterodimerization of Osf2 with Cbfβ. EMSA done with labeled double-stranded OSE2 oligonucleotide, and equivalent amounts of the Histidine-tagged wild-type and mutant proteins, in the presence or absence of Cbfβ. The nonspecific band (NS) is indicated by an arrow. Arrowheads indicate the supershifted complexes seen in lanes 4 and 10.
(§1) 5.6.1.3 Generation of Recombinant Fusion Proteins, DNA-binding Assays, and In Vitro Binding Assays For protein production, bacterial cells were induced with 2 mM IPTG, and the fusion proteins were enriched using Ni-NTA agarose resin (Qiagen Chatsworth, Calif.) as per the manufacturer's guidelines. DNA-binding assays were performed with 5 fmol of ^32P-labeled double-stranded OSE2 oligonucleotides, in a buffer containing 20 mM Tris-HCl, pH 8.0, 10 mM NaCl, 3 mM EGTA, 0.05% NP-40, 5 mM DTT, and 2 μg of poly (dI.dC).poly (dI.dC), with equivalent amounts of wild type or mutant proteins. […] The proteins were checked for purity and quantified before use. ^35S-labeled Osf2 and Cbfa2 were synthesized in rabbit reticulocyte lysate using coupled in vitro transcription and translation (TNT kit, Promega). Typically, 100 ng of fusion protein bound to glutathione-agarose beads was used for each assay, while the amount of labeled protein in the assay was determined using fluorography. […]

[2] = biological target: OSF2/CBFA1a (Homo sapiens, UniProt Q13950 SEQ:1-521); experiment: cell_activity; p6OSE2-luc, F9 cells; conditions: tags: pCMV expression
OSF2/CBFA1a, sequence (Q13950 whole entry P266H/R267G): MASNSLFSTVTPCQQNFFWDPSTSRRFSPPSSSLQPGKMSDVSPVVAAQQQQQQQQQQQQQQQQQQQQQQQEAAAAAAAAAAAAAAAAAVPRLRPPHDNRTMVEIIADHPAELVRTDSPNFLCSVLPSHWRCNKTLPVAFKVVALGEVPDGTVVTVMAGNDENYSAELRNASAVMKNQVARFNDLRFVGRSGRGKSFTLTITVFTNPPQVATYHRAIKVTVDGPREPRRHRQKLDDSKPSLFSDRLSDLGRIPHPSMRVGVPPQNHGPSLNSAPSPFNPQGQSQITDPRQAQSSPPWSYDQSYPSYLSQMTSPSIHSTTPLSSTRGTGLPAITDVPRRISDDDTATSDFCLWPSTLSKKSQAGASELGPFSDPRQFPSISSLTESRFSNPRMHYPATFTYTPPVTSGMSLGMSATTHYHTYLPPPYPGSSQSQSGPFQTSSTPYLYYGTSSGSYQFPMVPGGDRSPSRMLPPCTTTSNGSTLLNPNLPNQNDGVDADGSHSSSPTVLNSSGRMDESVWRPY
Experimental: FIG. 8B. F9 mouse teratocarcinoma cells were transiently transfected with 5 μg of the reporter plasmid in presence of 5 μg of the indicated expression vector. Values are expressed relative to the basal activity of p6OSE2-luc which was set at 1. Data represent results from 3 independent transfection studies.
The mouse F9 teratocarcinoma cell line was used for the DNA transfection studies. The cells were plated on 10-cm dishes at a density of 5×10^5 cells/dish. Cells were transfected by the calcium phosphate coprecipitation method (Chen and Okayama, 1987), using 5 μg of reporter plasmid, 5 μg of expression plasmid and 2 μg of pRSV/βGal as previously described (Geoffroy et al., 1995). The p6OSE2-luc plasmid containing six copies of the wild-type OSE2 oligonucleotide in front of the −34/+13 mOG2 promoter-luciferase (luc) was used as reporter plasmid (Ducy and Karsenty, 1995). The pCMV-hOSF2/CBFA1a and pCMV-hOSF2/CBFA1b were used as expression plasmids. They contain respectively the full length hOSF2/CBFA1a cDNA and the hOSF2/CBFA1b cDNA lacking exon 8 in correct orientation downstream from the CMV promoter. Luciferase and β-galactosidase activities were assayed as previously described (Geoffroy et at, 1995). […]

[3] = biological target: His-Cbfa2 + His-Cbfb heterodimer (UniProt Q03347;Q08024 Q03347:1-451,Q08024:1-187); experiment: EMSA; slower heterodimer complex; conditions: tags: 6xHis on each (pTrcHis); chain copies: 2 (1:1 heterodimer, inferred); label: 32P
His-Cbfa2 + His-Cbfb heterodimer, sequence (Q03347 whole entry, chain 1 of 2): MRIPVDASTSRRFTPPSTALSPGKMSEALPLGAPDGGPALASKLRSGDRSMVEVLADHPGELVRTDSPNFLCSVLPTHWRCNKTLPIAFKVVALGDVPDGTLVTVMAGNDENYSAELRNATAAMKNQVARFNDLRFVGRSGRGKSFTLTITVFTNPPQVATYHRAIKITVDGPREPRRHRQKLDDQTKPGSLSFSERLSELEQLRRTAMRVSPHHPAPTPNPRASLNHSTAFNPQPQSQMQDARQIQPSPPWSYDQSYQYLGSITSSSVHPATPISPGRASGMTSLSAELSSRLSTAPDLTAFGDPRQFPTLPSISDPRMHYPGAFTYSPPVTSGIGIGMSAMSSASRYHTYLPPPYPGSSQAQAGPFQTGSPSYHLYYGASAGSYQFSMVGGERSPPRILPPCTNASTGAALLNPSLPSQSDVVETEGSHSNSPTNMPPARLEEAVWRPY
His-Cbfa2 + His-Cbfb heterodimer, sequence (Q08024 whole entry, chain 2 of 2): as the sequence (Q08024 whole entry, stated change not applied, chain 2 of 2, the tested form may be a part) above
Experimental: as §1
(§2) Since Cbfβ is also expressed in osteoblasts, the inventors tested if Cbfβ was also a partner for Osf2 using an electrophoretic mobility shift assay (EMSA). […] In contrast, when using His-Cbfa2 protein as a positive control, the inventors always detected heterodimerization with Cbfβ, resulting in a protein-DNA complex of slower mobility (FIG. 18A, compare lanes 3 and 4). […]

[4] = biological target: T1, Osf2/Cbfa1 (Mus musculus, UniProt Q08775 SEQ:1-528); experiment: cell_activity; p6OSE2-luc (6 copies), F9 cells; conditions: tags: pCMV5 expression
T1 sequence (Q08775 80-607): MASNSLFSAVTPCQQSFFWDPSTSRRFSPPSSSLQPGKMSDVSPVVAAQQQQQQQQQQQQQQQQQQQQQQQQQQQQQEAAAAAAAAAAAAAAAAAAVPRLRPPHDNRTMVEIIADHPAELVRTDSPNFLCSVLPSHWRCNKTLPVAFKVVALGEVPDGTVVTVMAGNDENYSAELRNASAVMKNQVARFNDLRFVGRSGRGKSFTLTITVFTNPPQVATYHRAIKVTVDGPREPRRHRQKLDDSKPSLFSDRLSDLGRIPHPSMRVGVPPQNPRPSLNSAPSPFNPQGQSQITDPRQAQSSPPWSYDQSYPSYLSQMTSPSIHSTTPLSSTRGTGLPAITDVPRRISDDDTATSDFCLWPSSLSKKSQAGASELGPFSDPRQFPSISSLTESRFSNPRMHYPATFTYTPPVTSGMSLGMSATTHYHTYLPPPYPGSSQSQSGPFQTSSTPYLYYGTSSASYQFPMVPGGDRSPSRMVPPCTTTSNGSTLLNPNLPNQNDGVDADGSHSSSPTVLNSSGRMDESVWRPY
Experimental: After transfection the cells were washed twice with PBS (150 mM NaCl, 10 mM sodium phosphate [pH 7.2]), and regular medium was added for 24 h. Cells were harvested and lysed by three cycles of freeze-thawing. β-galactosidase activities present in each lysate, measured by a colorimetric enzyme assay (Ausubel et al., 1997) using resorufin β-D-galactopyranoside (Boehringer Mannheim) as a substrate, were used to normalize the transfection efficiency between different studies. DNA cotransfections (Ausubel et al., 1997) were performed in duplicates and repeated at least four times with quantitatively and qualitatively similar results. Luciferase activities were assayed using a Monolight 2010 luminometer (Analytical Luminescence Laboratory, San Diego, Calif.) and D-luciferin substrate (Analytical Luminescence Laboratory) in 100 mM Tris-HCl [pH 7.8], 5 mM ATP, 15 mM MgSO_4, 1 mM dithiothreitol (DTT). For overexpression studies, expression plasmids were transfected for 4 h with Lipofectamin (GIBCO) following the manufacturer's instructions. RNA were harvested 40 h after transfection. […]
The transcriptional activity of Osf2/Cbfa1 was assessed by DNA cotransfection studies. […]

[5] = biological target: His-Cbfa2 (Mus musculus, UniProt Q03347 SEQ:1-451); experiment: EMSA; conditions: tags: 6xHis (pTrcHis); label: 32P
His-Cbfa2, sequence (Q03347 whole entry): as the sequence (Q03347 whole entry, chain 1 of 2) above
Experimental: as §1, §2

[6] = biological target: T1, Osf2/Cbfa1; experiment: cell_activity; p910-Opn-luc promoter fragment, F9 cells; deletion of element abolished; conditions: tags: pCMV5 expression

Binder | binding result [1] | activity [2] [fold activation] | binding result [3] | activity [4] [fold activation] | binding result [5] | activity [6] [fold activation]
B1 | binds | 75 | binds | > 70 | binds | –
B2 | – | – | – | – | – | 4
